Results taken from patent US20060121489 (Board of Regents, The University of Texas System, published 2006).

Legend:
Conditions in all cases: chain copies: 2 (homodimer, stated)
[1] = target: T1, NF-kB p50 homodimer (UniProt P19838 P19838:1-433); test: competition; inhibits p65/p65 and p50/p50 equally; nonspecific stickiness
[2] = target: T2, NF-kB p65 (RelA) homodimer (UniProt Q04206 Q04206:1-551); test: as above
[3] = target: T1, NF-kB p50 homodimer; test: EMSA; stated as sub-nM
[4] = target: T2, NF-kB p65 (RelA) homodimer; test: EMSA; p65 homodimer

T2 sequence (Q04206 whole entry, one chain of several): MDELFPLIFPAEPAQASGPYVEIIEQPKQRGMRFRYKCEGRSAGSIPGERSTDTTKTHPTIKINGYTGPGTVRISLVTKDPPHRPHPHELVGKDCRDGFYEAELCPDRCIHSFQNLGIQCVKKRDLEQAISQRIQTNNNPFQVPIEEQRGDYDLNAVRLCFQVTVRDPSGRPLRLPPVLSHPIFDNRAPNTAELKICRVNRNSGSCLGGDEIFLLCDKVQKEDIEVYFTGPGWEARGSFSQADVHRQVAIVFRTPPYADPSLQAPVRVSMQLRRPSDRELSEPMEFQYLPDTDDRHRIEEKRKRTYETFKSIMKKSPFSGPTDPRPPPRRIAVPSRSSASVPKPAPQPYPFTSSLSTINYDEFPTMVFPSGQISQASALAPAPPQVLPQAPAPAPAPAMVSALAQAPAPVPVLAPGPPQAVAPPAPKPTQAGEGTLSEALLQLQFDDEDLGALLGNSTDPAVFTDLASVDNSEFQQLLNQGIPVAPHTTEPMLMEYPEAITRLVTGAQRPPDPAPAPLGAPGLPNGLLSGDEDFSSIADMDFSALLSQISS
T1 sequence (P19838 1-433, one chain of several): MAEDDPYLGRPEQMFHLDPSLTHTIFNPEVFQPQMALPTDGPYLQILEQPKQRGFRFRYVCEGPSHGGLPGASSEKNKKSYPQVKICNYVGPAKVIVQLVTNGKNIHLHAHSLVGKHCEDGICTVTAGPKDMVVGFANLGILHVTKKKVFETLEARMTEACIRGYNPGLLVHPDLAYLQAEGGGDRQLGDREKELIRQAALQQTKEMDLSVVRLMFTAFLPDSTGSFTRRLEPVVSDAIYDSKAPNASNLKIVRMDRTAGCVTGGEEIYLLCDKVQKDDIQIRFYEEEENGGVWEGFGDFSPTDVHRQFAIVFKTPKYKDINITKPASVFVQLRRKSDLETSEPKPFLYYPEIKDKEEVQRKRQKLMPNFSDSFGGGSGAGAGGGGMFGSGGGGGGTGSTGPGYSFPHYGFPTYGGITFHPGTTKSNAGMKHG

B1: CK-1 42-mer full phosphorothioate (dsDNA)
DNA 1: CCAGGAGATTCCACCCAGGAGATTCCACCCAGGAGATTCCAC
DNA 2: GTGGAATCTCCTGGGTGGAATCTCCTGGGTGGAATCTCCTGG
modifications: full PS
[1]
  binding result: binds
[2]
  binding result: binds

B2: XBY-6 (dsDNA)
DNA 1: CCAGGAGATTCCAC
DNA 2: GTGGAATCTCCTGG
modifications: 6 phosphorodithioate (S2) linkages: 5'-…2TS2CCAC-3' / 3'-GGS2TCCS2TCS2TAAGGS2TG-5'
[3]
  Kd: < 1 nM
[4]
  Kd: 1.4 nM
